According to article PMC10183039:

Target: Grp78 (rat (endogenous in hippocampus)) (UniProt P06761)
Experiment: co-IP; primary antibody on Protein A/G magnetic beads in PBS with 0.3% Triton X-100; hippocampal tissue of 3-month-old male rats (WT; APP KO or SNCA KO for comparison) homogenized in RIPA lysis buffer; lysate with beads overnight at 4 °C; four washes with PBST; western blotting

Sequence of IP3R1, P29994 1-2750 (receptor) (P29994 whole entry): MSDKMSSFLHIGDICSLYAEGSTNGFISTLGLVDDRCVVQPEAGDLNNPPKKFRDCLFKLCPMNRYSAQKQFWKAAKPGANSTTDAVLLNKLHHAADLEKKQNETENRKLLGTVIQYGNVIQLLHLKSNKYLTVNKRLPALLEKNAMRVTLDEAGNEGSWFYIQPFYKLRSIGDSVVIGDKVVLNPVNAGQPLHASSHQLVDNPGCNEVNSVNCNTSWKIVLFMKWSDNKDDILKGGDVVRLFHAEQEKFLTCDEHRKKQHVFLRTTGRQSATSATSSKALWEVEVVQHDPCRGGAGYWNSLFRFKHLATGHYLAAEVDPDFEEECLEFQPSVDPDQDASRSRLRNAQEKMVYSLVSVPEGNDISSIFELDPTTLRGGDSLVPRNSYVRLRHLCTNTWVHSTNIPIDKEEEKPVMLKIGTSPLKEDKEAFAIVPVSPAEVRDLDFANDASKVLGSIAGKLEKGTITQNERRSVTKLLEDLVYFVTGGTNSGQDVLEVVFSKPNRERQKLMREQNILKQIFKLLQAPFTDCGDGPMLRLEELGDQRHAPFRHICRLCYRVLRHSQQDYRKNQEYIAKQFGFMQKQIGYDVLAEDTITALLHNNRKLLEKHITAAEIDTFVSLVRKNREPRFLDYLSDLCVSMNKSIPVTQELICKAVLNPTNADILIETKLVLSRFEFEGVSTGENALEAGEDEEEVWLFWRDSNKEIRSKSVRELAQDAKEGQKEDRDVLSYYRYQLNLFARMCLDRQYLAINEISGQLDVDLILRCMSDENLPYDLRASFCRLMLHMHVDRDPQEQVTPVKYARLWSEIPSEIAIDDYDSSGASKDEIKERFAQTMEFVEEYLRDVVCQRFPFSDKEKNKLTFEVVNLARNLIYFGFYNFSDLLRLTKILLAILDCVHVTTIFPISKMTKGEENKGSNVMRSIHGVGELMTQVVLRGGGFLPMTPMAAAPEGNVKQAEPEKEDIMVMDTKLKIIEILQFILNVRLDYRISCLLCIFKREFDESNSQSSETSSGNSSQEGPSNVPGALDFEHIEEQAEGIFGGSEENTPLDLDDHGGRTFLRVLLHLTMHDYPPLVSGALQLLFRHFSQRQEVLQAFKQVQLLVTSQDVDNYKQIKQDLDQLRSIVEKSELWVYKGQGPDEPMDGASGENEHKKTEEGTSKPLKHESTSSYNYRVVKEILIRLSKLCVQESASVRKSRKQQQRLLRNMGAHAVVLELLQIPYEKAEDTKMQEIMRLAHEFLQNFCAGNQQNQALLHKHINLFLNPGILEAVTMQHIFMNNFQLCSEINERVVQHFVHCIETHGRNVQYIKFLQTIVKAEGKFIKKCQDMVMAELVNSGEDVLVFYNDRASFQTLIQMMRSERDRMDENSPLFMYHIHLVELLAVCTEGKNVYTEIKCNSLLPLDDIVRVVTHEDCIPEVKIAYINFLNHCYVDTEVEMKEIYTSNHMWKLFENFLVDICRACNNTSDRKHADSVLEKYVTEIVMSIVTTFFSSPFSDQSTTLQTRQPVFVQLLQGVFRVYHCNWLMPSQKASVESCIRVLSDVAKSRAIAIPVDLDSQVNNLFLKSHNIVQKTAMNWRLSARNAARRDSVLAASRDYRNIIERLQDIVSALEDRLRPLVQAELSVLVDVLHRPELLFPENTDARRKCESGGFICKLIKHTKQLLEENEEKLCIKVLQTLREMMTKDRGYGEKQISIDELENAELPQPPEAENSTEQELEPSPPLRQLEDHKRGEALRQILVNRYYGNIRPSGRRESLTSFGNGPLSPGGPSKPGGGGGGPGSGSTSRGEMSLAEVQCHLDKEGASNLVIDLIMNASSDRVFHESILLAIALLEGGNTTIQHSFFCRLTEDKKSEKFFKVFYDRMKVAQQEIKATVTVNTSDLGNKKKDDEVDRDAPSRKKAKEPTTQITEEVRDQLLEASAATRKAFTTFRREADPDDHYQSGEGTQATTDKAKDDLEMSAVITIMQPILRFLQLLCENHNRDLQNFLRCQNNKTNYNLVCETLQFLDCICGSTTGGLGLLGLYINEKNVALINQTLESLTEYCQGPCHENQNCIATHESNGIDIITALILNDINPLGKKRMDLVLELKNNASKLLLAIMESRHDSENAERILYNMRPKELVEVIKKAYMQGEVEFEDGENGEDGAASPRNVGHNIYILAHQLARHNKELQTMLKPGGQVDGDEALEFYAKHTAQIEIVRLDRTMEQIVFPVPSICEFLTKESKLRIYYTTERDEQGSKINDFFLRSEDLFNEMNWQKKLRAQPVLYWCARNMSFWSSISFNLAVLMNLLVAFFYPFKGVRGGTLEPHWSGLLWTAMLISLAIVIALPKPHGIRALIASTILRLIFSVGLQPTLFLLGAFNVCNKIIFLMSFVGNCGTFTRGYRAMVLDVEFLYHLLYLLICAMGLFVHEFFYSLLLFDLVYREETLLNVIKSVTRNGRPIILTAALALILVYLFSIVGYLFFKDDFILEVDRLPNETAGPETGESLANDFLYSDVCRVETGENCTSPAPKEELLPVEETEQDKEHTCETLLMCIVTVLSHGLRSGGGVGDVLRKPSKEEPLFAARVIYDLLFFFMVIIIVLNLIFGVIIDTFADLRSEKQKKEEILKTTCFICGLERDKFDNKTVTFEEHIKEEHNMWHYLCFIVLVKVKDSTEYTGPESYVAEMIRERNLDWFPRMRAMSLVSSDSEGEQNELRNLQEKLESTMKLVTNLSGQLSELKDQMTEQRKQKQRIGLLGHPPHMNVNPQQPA
Sequence of Grp78 (rat (endogenous in hippocampus)) (P06761 19-654): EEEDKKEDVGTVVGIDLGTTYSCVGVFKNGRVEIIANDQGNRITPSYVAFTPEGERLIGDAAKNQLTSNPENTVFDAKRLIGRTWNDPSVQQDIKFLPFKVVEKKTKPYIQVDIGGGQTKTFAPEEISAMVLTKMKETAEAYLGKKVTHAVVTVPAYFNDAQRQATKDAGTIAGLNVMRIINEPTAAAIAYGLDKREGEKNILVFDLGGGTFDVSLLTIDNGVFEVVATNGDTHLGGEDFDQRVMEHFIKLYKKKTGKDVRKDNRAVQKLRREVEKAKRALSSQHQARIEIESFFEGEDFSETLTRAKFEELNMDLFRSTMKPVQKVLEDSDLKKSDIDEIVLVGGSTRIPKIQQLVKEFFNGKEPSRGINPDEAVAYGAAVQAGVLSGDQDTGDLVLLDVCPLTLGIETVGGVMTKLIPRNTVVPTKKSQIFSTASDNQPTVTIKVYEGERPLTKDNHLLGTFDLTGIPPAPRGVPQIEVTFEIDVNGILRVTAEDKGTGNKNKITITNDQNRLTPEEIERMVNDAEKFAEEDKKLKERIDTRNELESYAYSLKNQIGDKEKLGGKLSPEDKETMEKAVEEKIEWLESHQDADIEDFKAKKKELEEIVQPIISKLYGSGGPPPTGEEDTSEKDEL

fold of IP3R1 co-immunoprecipitated with Grp78, APP KO lysate against WT lysate: 1.49 fold
Substance: IP3R1, P29994 1-2750 (receptor)
